Measurements from patent US12383631.
Where two headings read alike, the source gives them in different places.

Legend:
[1] = target: recombinant Human Fc gamma RIIA/CD32a (H167) Protein (R&D systems, 9595-CD-050) (human) (UniProt P12318); test: ELISA; antibody coated, receptor titrated, anti-His-HRP
[2] = target: recombinant Human Fc gamma RI/CD64 Protein (R&D systems, 1257-FC-050) (human) (UniProt P12314); test: as above
[3] = target: recombinant Human Fc gamma RIIB/CD32b Avi-tag Protein (R&D systems, AVI1875-050) (human) (UniProt P31994); test: as above
[4] = target: recombinant Human Fc gamma RIIIA/CD16a Protein (R&D systems, 4325-FC-050) (human) (UniProt P08637); test: as above
[5] = target: recombinant biotinylated human FcRn (human) (UniProt P55899); test: AlphaLISA competition at pH 6; competitor: human IgG on acceptor beads
[6] = target: recombinant biotinylated human FcRn (human) (UniProt P55899); test: FcRn competition AlphaLISA at pH 6: test antibody titrated (x-axis) against human IgG-coated acceptor beads (reference IgG) for biotinylated human FcRn on streptavidin donor beads; loss of signal
[7] = target: human PD-1 on Jurkat T effector cells (human) (UniProt Q15116)
[8] = target: recombinant Human Fc gamma RI/CD64 Protein (R&D systems, 1257-FC-050) (human) (UniProt P12314); test: ELISA: antibody coated on the plate (2.5 ug/ml), His-tagged recombinant human Fc gamma RI/CD64 titrated in solution (x-axis), anti-His-HRP/TMB, 450 nm
[9] = target: recombinant Human Fc gamma RIIA/CD32a (H167) Protein (R&D systems, 9595-CD-050) (human) (UniProt P12318); test: ELISA; immunocytokine coated, receptor titrated, anti-His-HRP
[10] = target: recombinant Human Fc gamma RI/CD64 Protein (R&D systems, 1257-FC-050) (human) (UniProt P12314); test: as above
[11] = target: recombinant Human Fc gamma RIIB/CD32b Avi-tag Protein (R&D systems, AVI1875-050) (human) (UniProt P31994); test: as above
[12] = target: recombinant Human Fc gamma RIIIA/CD16a Protein (R&D systems, 4325-FC-050) (human) (UniProt P08637); test: as above
[13] = target: recombinant Human Fc gamma RI/CD64 Protein (R&D systems, 1257-FC-050) (human) (UniProt P12314); test: ELISA: immunocytokine coated on the plate (2.5 ug/ml), His-tagged recombinant human Fc gamma RI/CD64 titrated in solution (x-axis), anti-His-HRP/TMB, 450 nm
[14] = target: human PD-1 on Jurkat T effector cells (human) (UniProt Q15116); remark: listed apart in the source
[15] = target: T1, IL-18 receptor (IL-18Rα/IL-18Rβ) on cells (HEK-Blue IL18R reporter cells, NK-92, KG-1) (human) (UniProt Q13478); test: cell-based or functional assay
T1 sequence (looked up) 1: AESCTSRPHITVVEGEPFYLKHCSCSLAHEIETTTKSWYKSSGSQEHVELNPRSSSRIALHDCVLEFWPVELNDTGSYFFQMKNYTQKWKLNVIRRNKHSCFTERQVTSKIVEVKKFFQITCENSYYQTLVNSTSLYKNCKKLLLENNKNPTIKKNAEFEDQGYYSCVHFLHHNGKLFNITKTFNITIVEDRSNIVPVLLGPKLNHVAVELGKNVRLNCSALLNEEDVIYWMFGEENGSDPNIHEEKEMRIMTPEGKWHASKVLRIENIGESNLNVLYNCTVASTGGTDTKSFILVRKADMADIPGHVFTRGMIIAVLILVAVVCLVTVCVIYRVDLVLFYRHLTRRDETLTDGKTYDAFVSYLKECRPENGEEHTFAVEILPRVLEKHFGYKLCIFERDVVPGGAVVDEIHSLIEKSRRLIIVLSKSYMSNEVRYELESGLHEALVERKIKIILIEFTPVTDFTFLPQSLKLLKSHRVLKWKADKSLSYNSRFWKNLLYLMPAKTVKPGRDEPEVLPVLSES
T1 sequence (looked up) 2: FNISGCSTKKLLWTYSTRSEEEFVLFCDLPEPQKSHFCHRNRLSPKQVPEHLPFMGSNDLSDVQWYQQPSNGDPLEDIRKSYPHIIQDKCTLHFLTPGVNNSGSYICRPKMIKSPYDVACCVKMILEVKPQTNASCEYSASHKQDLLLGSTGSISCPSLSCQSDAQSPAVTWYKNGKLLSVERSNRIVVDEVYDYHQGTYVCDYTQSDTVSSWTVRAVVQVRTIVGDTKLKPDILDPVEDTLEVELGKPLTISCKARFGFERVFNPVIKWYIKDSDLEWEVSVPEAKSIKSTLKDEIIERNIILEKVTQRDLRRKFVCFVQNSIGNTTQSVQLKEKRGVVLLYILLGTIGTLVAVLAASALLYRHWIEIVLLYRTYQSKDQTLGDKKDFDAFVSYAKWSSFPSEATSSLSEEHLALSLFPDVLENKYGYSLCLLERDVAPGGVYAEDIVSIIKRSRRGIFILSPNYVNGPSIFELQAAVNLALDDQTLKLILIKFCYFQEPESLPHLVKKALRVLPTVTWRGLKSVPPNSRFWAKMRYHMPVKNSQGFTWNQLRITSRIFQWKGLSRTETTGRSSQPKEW

[16] = target: human IL-18BP-His (human) (UniProt O95998); test: AlphaLISA of free IL-18BP after incubation with IL-18BP-His
[17] = target: human IL-18BP-His (human) (UniProt O95998); test: AlphaLISA of free (unbound) IL-18BP: immunocytokine titrated (x-axis) and pre-incubated with human IL-18BP-His; anti-IL-18BP acceptor beads, biotinylated anti-IL-18BP antibody, streptavidin donor beads; the signal falls as IL-18BP is bound

Chain of recombinant Human Fc gamma RI/CD64 Protein (R&D systems, 1257-FC-050) (human) (P12314 16-288 limits assumed): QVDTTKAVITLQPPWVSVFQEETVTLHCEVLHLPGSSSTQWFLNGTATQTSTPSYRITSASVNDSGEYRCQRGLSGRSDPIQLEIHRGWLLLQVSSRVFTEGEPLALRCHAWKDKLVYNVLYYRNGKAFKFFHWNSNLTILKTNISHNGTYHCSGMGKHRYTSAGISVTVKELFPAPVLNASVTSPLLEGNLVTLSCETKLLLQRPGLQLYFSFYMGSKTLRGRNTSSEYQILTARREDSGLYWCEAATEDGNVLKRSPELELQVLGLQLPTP
Chain of recombinant Human Fc gamma RIIIA/CD16a Protein (R&D systems, 4325-FC-050) (human) (P08637 17-208 limits assumed): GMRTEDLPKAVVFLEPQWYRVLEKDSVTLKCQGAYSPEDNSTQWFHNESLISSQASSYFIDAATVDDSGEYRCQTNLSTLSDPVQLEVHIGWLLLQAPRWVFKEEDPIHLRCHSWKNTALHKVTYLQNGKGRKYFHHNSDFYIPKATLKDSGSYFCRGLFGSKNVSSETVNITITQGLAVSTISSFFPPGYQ
Chain of recombinant Human Fc gamma RIIB/CD32b Avi-tag Protein (R&D systems, AVI1875-050) (human) (P31994 46-217 limits assumed): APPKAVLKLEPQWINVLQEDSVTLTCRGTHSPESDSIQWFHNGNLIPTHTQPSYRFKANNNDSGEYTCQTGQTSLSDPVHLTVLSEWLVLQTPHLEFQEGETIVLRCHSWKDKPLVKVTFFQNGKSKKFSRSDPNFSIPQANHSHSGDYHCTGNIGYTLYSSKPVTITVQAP
Chain of recombinant Human Fc gamma RIIA/CD32a (H167) Protein (R&D systems, 9595-CD-050) (human) (P12318 36-218 limits assumed): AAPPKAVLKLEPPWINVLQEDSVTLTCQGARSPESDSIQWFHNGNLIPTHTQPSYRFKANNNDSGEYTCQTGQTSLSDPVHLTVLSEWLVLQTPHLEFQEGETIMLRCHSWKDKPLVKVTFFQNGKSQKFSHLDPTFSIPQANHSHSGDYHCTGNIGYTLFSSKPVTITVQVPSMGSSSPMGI
Chain of human IL-18BP-His (human) (O95998 31-194 limits assumed): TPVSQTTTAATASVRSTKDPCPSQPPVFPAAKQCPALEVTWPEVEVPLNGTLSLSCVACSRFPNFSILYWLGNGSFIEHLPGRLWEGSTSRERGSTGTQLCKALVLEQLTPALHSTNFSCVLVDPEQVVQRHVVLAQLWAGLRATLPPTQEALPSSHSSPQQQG
Chain of human PD-1 on Jurkat T effector cells (human) (Q15116 25-288 limits assumed): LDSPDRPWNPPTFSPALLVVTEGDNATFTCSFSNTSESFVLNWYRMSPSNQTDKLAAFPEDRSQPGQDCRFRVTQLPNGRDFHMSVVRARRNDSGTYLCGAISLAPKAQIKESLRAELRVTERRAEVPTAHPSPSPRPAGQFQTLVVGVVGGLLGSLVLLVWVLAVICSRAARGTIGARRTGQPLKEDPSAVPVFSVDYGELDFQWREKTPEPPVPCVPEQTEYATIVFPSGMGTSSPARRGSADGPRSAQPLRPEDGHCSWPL
Chain of recombinant biotinylated human FcRn (human) (P55899 24-297 limits assumed, form in doubt, chain 1 of 2): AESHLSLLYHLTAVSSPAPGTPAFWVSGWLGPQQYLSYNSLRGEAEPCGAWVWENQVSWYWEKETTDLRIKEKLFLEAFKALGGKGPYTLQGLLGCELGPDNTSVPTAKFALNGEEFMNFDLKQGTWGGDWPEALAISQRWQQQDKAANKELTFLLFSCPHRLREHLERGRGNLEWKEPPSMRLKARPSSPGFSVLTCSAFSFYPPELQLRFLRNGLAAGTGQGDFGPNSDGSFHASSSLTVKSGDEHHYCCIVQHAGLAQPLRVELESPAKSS
Chain of recombinant biotinylated human FcRn (human) (chain, as listed by the source limits assumed, form in doubt, chain 2 of 2): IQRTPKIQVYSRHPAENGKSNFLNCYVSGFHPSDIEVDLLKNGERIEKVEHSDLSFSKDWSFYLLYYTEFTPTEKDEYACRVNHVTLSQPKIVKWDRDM
Chain of LZM-009 (antibody) (VH): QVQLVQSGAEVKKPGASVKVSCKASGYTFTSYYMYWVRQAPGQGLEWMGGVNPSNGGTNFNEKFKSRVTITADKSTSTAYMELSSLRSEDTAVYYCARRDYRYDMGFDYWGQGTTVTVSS
Chain of LZM-009 (antibody) (VL): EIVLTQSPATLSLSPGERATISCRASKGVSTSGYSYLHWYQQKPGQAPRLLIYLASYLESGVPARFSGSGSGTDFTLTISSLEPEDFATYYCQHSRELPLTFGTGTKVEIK

Substance: LZM-009 (antibody)
- Kd [1]: 1350 nM
- Kd [2]: 0.315 nM
- Kd [3]: 2630 nM
- Kd [4]: 1710 nM
- Kd [5]: 6 nM
- IC50 (read off the curve) [6]: 5 nM
- EC50 (read off the curve), NFAT-RE luciferase signal (PD-1/PD-L1 Blockade Bioassay) [7]: 2 nM
- EC50 (read off the curve) [8]: 0.2 nM

Substance: Composition A (LZM-009 conjugated to IL-18 polypeptide of SEQ ID NO: 30) (from UniProt Q14116 37-193)
- Kd [9]: 1890 nM
- Kd [10]: 0.25 nM
- Kd [11]: 436 nM
- Kd [12]: 598 nM
- EC50 (read off the curve) [13]: 0.3 nM
- EC50 (read off the curve), NFAT-RE luciferase signal (PD-1/PD-L1 Blockade Bioassay) [14]: 3 nM
- EC50, IFNγ secretion, NK92 cells [15]: 0.073 nM
- EC50, IFNγ secretion, PD-1 positive KG-1 cells [15]: 0.0012 nM
- EC50, IFNγ secretion, parental KG-1 cells [15]: 0.011 nM

Substance: Composition C (Trastuzumab/Herceptin conjugated to IL-18 polypeptide of SEQ ID NO: 30)
- Kd [12]: 3300 nM
- Kd [16]: 10.5 nM
- IC50 (read off the curve) [17]: 10 nM
- EC50, IFNγ secretion, NK92 cells [15]: 0.027 nM
- EC50, IFNγ secretion, PD-1 positive KG-1 cells [15]: 0.0096 nM
- EC50, IFNγ secretion, parental KG-1 cells [15]: 0.0166 nM
